Where two headings read alike, the source gives them in different places.
What was measured:
Assay in all cases: two-hybrid library CCmax;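 further: natural log of median RNA to DNA barcode read ratio; higher means stronger binding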
4H1513-AA = molecular target: T1, 4H1513-AA
T1 chain: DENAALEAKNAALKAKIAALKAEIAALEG

4H1594-AA = molecular target: T2, 4H1594-AA; details: mean of both orientations
T2 chain: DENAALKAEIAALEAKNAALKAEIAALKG

4H1629-AA = molecular target: T3, 4H1629-AA; details: mean of both orientations
T3 chain: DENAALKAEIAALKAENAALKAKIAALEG

4H1845-AA = molecular target: T4, 4H1845-AA; details: mean of both orientations
T4 chain: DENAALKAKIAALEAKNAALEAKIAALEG

4H1874-AA = molecular target: T5, 4H1874-AA; details: mean of both orientations
T5 chain: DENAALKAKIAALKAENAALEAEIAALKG

4H2198-AA = molecular target: T6, 4H2198-AA; details: mean of both orientations
T6 chain: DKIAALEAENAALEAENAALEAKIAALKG

4H2553-AA = molecular target: T7, 4H2553-AA; details: mean of both orientations
T7 chain: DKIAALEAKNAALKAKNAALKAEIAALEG

4H2611-AA = molecular target: T8, 4H2611-AA
T8 chain: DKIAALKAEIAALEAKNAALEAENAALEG

4H2620-AA = molecular target: T9, 4H2620-AA; details: mean of both orientations
T9 chain: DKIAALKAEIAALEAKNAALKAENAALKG

4H2648-AA = molecular target: T10, 4H2648-AA; details: mean of both orientations
T10 chain: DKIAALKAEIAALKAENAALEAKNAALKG

4H2907-AA = molecular target: T11, 4H2907-AA; details: mean of both orientations
T11 chain: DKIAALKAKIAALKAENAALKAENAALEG

4H2944-AA = molecular target: T12, 4H2944-AA
T12 chain: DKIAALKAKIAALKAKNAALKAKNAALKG

4H3056-AA = molecular target: T13, 4H3056-AA; details: mean of both orientations
T13 chain: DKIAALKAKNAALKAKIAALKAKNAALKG

4H3133-AA = molecular target: T14, 4H3133-AA; details: mean of both orientations
T14 chain: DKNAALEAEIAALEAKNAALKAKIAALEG

4H3162-AA = molecular target: T15, 4H3162-AA; details: mean of both orientations
T15 chain: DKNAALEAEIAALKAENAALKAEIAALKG

4H32-AA = molecular target: T16, 4H32-AA; details: mean of both orientations
T16 chain: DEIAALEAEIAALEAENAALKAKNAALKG

4H3378-AA = molecular target: T17, 4H3378-AA; details: mean of both orientations
T17 chain: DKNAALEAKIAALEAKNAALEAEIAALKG

4H340-AA = molecular target: T18, 4H340-AA; details: mean of both orientations
T18 chain: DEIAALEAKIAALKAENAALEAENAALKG

4H3413-AA = molecular target: T19, 4H3413-AA; details: mean of both orientations
T19 chain: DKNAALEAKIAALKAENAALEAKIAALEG

4H3588-AA = molecular target: T20, 4H3588-AA; details: mean of both orientations
T20 chain: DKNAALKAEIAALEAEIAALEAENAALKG

4H3606-AA = molecular target: T21, 4H3606-AA; details: mean of both orientations
T21 chain: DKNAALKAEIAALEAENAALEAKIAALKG

4H3627-AA = molecular target: T22, 4H3627-AA
T22 chain: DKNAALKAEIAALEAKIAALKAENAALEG

4H3631-AA = molecular target: T23, 4H3631-AA; details: mean of both orientations
T23 chain: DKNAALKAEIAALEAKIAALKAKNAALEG

4H3697-AA = molecular target: T24, 4H3697-AA; details: mean of both orientations
T24 chain: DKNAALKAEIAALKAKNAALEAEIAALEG

4H3718-AA = molecular target: T25, 4H3718-AA
T25 chain: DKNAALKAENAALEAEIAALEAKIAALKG

4H384-AA = molecular target: T26, 4H384-AA; details: mean of both orientations
T26 chain: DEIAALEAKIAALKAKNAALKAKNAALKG

4H3865-AA = molecular target: T27, 4H3865-AA; details: mean of both orientations
T27 chain: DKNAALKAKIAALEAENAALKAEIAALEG

4H697-AA = molecular target: T28, 4H697-AA; details: mean of both orientations
T28 chain: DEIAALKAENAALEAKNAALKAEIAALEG

4H982-AA = molecular target: T29, 4H982-AA; details: mean of both orientations
T29 chain: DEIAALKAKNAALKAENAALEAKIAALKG

Q3-AA = molecular target: T30, Q3-AA; details: mean of both orientations
T30 chain: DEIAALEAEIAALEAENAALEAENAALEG

Q7-AA = molecular target: T31, Q7-AA; details: mean of both orientations
T31 chain: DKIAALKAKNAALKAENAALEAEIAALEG

Q8-AA = molecular target: T32, Q8-AA; details: mean of both orientations
T32 chain: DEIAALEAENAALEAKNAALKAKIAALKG

4H2949-AA = molecular target: T33, 4H2949-AA; details: mean of both orientations
T33 chain: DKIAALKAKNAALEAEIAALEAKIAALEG

4H3112-AA = molecular target: T34, 4H3112-AA; details: mean of both orientations
T34 chain: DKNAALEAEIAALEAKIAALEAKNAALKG

4H317-AA = molecular target: T35, 4H317-AA; details: mean of both orientations
T35 chain: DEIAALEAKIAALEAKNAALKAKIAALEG

4H3343-AA = molecular target: T36, 4H3343-AA; details: mean of both orientations
T36 chain: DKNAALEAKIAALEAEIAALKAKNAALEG

4H335-AA = molecular target: T37, 4H335-AA; details: mean of both orientations
T37 chain: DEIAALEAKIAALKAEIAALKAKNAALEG

4H342-AA = molecular target: T38, 4H342-AA; details: mean of both orientations
T38 chain: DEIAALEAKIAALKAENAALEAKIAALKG

4H3427-AA = molecular target: T39, 4H3427-AA; details: mean of both orientations
T39 chain: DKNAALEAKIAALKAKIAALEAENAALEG

4H3655-AA = molecular target: T40, 4H3655-AA; details: mean of both orientations
T40 chain: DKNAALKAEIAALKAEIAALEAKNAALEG

4H3844-AA = molecular target: T41, 4H3844-AA; details: mean of both orientations
T41 chain: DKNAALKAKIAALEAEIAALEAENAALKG

4H3921-AA = molecular target: T42, 4H3921-AA; details: mean of both orientations
T42 chain: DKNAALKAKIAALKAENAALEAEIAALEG

4H429-AA = molecular target: T43, 4H429-AA; details: mean of both orientations
T43 chain: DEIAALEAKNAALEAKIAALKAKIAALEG

4H454-AA = molecular target: T44, 4H454-AA; details: mean of both orientations
T44 chain: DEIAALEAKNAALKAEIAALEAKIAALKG

4H48-AA = molecular target: T45, 4H48-AA
T45 chain: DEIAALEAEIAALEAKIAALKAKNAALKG

4H566-AA = molecular target: T46, 4H566-AA; details: mean of both orientations
T46 chain: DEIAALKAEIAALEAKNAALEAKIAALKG

4H605-AA = molecular target: T47, 4H605-AA; details: mean of both orientations
T47 chain: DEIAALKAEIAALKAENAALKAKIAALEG

4H678-AA = molecular target: T48, 4H678-AA; details: mean of both orientations
T48 chain: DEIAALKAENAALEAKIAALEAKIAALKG

4H717-AA = molecular target: T49, 4H717-AA; details: mean of both orientations
T49 chain: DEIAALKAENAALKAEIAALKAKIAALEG

4H780-AA = molecular target: T50, 4H780-AA; details: mean of both orientations
T50 chain: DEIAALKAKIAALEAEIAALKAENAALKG

4H794-AA = molecular target: T51, 4H794-AA; details: mean of both orientations
T51 chain: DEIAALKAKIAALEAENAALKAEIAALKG

4H881-AA = molecular target: T52, 4H881-AA; details: mean of both orientations
T52 chain: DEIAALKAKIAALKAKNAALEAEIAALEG

4H906-AA = molecular target: T53, 4H906-AA; details: mean of both orientations
T53 chain: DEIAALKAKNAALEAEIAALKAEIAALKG

4H993-AA = molecular target: T54, 4H993-AA; details: mean of both orientations
T54 chain: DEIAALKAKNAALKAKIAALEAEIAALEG

In the case of DENAALEAKNAALKAKIAALKAEIAALEG [4H1513-AA], the interaction score (4H1513-AA) is reported as -1.35, the interaction score (4H1594-AA) is reported as -1.55 and the interaction score (4H1629-AA) is reported as -1.62. For the same binder, the interaction score (4H1845-AA) was -1.62, the interaction score (4H1874-AA) was -1.02 and the interaction score (4H2198-AA) was 1.63. It also gave an interaction score (4H2553-AA) of -1.64, an interaction score (4H2611-AA) of -1.21 and an interaction score (4H2620-AA) of -1.68. For the same binder, the interaction score (4H2648-AA) was -1.14, the interaction score (4H2907-AA) was -1.65 and the interaction score (4H2944-AA; mean of both orientations) was -1.86. It also gave an interaction score (4H3056-AA) of -1.71, an interaction score (4H3133-AA) of -1.2 and an interaction score (4H3162-AA) of -1.99. The interaction score (4H32-AA) was -0.712, the interaction score (4H3378-AA) was -1.77 and the interaction score (4H340-AA) was -1.57. The interaction score (4H3413-AA) was -1.28, the interaction score (4H3588-AA) was -0.131 and the interaction score (4H3606-AA) was 0.638. For the same binder, the interaction score (4H3627-AA; mean of both orientations) was -0.0527, the interaction score (4H3631-AA) was 0.267 and the interaction score (4H3697-AA) was -2.13. The interaction score (4H3718-AA; mean of both orientations) was 1.82, the interaction score (4H384-AA) was -1.22 and the interaction score (4H3865-AA) was -1.9. It also gave an interaction score (4H697-AA) of -1.68, an interaction score (4H982-AA) of -1 and an interaction score (Q3-AA) of -1.16. It also gave an interaction score (Q7-AA) of -0.188 and an interaction score (Q8-AA) of -1.06.

For DKNAALKAENAALEAEIAALEAKIAALKG [4H3718-AA], the interaction score (4H3718-AA) was -0.586, the interaction score (4H384-AA) was 0.145 and the interaction score (4H3865-AA) was -1.49. The interaction score (4H697-AA) was -0.465, the interaction score (4H982-AA) was -1.15 and the interaction score (Q3-AA) was -1.46. For the same binder, the interaction score (Q7-AA) was -0.973 and the interaction score (Q8-AA) was 1.05.

DKIAALKAKIAALKAKNAALKAKNAALKG [4H2944-AA] showed an interaction score (4H2944-AA) of -1.62, an interaction score (4H2949-AA) of -1.55 and an interaction score (4H3112-AA) of -0.15. For the same binder, the interaction score (4H317-AA) was -1.04, the interaction score (4H3343-AA) was -1.17 and the interaction score (4H335-AA) was -1.7. For the same binder, the interaction score (4H342-AA) was 1.12, the interaction score (4H3427-AA) was -0.0703 and the interaction score (4H3606-AA) was -0.0316. For the same binder, the interaction score (4H3627-AA; mean of both orientations) was -0.579, the interaction score (4H3655-AA) was -0.297 and the interaction score (4H3718-AA; mean of both orientations) was -0.87. It also gave an interaction score (4H3844-AA) of 0.407, an interaction score (4H3921-AA) of -0.731 and an interaction score (4H429-AA) of -1.71. The interaction score (4H454-AA) was -1.8, the interaction score (4H48-AA) was -1.33 and the interaction score (4H566-AA) was 0.106. The interaction score (4H605-AA) was -1.34, the interaction score (4H678-AA) was -1.67 and the interaction score (4H717-AA) was -1.69. The interaction score (4H780-AA) was -1.43, the interaction score (4H794-AA) was -1.89 and the interaction score (4H881-AA) was -0.992. It also gave an interaction score (4H906-AA) of -1.83, an interaction score (4H993-AA) of -2.01 and an interaction score (Q3-AA) of 1.67. For the same binder, the interaction score (Q7-AA) was -1.77 and the interaction score (Q8-AA) was -1.55.

DKNAALKAEIAALEAKIAALKAENAALEG [4H3627-AA] gave an interaction score (4H3627-AA) of 0.53, an interaction score (4H3655-AA) of -0.0982 and an interaction score (4H3718-AA; mean of both orientations) of -0.468. For the same binder, the interaction score (4H3844-AA) was 1.03, the interaction score (4H3921-AA) was -1.63 and the interaction score (4H429-AA) was -1.09. It also gave an interaction score (4H454-AA) of 0.554, an interaction score (4H48-AA; mean of both orientations) of -0.478 and an interaction score (4H566-AA) of -0.771. It also gave an interaction score (4H605-AA) of -1.4, an interaction score (4H678-AA) of -1.31 and an interaction score (4H717-AA) of -1.79. For the same binder, the interaction score (4H780-AA) was -1, the interaction score (4H794-AA) was -1.93 and the interaction score (4H881-AA) was -1.04. For the same binder, the interaction score (4H906-AA) was -1.34, the interaction score (4H993-AA) was -1.08 and the interaction score (Q3-AA) was -1.24. For the same binder, the interaction score (Q7-AA) was -1.97 and the interaction score (Q8-AA) was -0.702.
